The target of assay [1] is T1, GII.4 Houston 2002 (ABY27560.1) VLPs (human norovirus GII.4 Houston 2002, UniProt P54635 1-539).
T1 construct: also called GII.4 Houston 2002 antigen; GII.4 Houston VLPs
T1 chain: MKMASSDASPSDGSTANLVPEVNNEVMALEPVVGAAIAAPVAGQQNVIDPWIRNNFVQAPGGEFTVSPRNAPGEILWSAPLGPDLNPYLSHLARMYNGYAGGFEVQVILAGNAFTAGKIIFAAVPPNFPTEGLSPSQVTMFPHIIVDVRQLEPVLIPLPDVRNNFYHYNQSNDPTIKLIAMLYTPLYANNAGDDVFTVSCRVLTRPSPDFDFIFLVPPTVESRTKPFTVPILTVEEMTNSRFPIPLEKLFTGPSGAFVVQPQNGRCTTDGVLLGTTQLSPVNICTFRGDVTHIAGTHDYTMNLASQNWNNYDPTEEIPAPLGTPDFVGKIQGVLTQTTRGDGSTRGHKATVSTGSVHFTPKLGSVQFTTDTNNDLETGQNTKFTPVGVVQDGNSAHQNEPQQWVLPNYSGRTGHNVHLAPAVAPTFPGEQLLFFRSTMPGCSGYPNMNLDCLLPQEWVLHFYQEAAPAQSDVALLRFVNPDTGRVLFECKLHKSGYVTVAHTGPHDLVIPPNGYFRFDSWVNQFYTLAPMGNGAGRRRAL
Nature of the assay: ELISA on GII.4 Houston 2002 VLPs against ELISA on GII.4 Sydney 2012 VLPs.

Assay [2] addresses GII.4 Sydney 2012 virus-like particles (VLPs), based on strain AFV08795.1 (human norovirus GII.4 Sydney 2012, UniProt P54635 1-538). Nature of the assay: indirect ELISA on coated GII.4 Sydney 2012 VLPs.
In a further assay the target is T2, GI.1 (M87661) VLPs (norovirus GI.1, UniProt Q83884 1-530; Q83885 1-212).
T2 sequence (VP1): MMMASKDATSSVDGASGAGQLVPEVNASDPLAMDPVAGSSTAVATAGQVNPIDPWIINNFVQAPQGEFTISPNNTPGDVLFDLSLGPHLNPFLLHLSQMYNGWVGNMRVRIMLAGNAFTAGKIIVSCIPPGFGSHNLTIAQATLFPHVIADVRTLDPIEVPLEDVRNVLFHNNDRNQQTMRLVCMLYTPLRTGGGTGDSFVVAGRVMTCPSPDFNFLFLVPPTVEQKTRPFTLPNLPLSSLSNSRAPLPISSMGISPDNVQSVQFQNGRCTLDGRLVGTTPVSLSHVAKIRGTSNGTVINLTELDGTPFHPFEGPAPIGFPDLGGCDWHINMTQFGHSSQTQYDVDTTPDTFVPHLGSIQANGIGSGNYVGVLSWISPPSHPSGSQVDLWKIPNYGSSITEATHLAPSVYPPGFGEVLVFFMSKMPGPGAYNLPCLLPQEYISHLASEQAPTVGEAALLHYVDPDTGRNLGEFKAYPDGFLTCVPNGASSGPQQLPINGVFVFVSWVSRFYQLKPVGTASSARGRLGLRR
T2 sequence (VP2): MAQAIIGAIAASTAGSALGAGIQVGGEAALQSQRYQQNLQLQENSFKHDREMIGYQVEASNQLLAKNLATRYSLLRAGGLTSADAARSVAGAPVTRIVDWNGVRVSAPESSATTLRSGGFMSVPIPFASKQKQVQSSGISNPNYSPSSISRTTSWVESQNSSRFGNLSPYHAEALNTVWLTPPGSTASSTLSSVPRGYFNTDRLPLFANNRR
Nature of the assay: indirect ELISA on VLPs. For orientation: An ELISA detects its analyte on a solid surface through an enzyme-linked reagent.

The target of assay [3] is T1, GII.4 Houston 2002 (ABY27560.1) VLPs. The experiment in a line: ELISA on GII.4 Houston 2002 VLPs.
Assay [4] has as its target T3, GII.4 Sydney 2012 virus-like particles (VLPs), based on strain AFV08795.1 (human norovirus GII.4 Sydney 2012, UniProt P54635 1-538).
T3 construct: also called GII.4 VLPs
T3 chain: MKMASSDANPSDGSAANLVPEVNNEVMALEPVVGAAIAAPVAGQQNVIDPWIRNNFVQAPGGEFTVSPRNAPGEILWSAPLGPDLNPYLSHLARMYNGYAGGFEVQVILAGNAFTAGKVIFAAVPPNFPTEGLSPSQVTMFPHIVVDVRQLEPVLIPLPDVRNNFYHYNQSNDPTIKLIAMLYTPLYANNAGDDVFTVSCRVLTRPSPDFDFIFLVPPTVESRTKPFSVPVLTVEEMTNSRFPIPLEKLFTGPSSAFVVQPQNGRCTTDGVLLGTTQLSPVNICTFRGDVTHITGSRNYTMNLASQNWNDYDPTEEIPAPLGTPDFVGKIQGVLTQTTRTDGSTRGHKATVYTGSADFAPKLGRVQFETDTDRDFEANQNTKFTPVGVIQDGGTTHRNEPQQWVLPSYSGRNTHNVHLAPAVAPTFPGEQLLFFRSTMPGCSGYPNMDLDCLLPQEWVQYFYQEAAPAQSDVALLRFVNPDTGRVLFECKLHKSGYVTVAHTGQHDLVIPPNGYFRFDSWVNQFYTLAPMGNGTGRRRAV
Nature of the assay: indirect ELISA on coated GII.4 Sydney 2012 VLPs.

Assay [5] concerns the target T4, GII.4 Sydney 2012 shell (S) domain (human norovirus GII.4 Sydney 2012, UniProt P54635 1-221 (Lordsdale virus entry), limits assumed).
T4 construct: Recombinant S domain particles (pVL1392, baculovirus, Sf9); the whole VP1 entry is named; also called GII.4 S domain
T4 chain: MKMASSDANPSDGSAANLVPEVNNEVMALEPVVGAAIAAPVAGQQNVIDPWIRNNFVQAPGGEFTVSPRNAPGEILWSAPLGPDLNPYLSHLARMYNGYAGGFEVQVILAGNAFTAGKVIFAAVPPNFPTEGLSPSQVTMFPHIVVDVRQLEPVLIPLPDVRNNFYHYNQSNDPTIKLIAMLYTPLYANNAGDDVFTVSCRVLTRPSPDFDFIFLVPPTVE
The experiment in a line: indirect ELISA on recombinant P and S domains.

The source of these data is US20210324050A1 (VANDERBILT UNIVERSITY, published 2021).

B1: NORO-115 (antibody, V domains shown)
VH: QVQLVESGGGLVKPGGSLRLSCTASGITISGYYMSWIRQAPGKGLEWIVYINTSGRTIYYADSVKGRFSVSRDNAKESLYLQMDSLTVDDTGIYYCARDRLPASGSHWFHPWGQGTLVTVSS
VL: DIVMTQSPDSLAVSLGGRATINCKSSQSVLYTSDNKNYLAWYQQQPGQPPKLLISWASTRESGVPDRFSGSGSGTDFTLTISNLQAEDVAVYYCQQYYNSPLAFGGGTKVEIK
Regarding B1, the “fold higher binding EC50 compared to GII.4 Sydney 2012 VLPs” value in assay [1] is > 10 fold.

B2: NORO-246A (antibody, V domains shown)
VH: EVHLVESGGGLVKPGGSLRLSCAASGFTFSRYGMHWVRQAPGKGLEWVSSIVIRSDYKYYADSVKGRFTISRDNAKNSLYLQMNSLRADDTAVYYCARDLVEPGITPVGCDYWGRGTLVTVSS
VL: SNELTQAPSVSVSPGQTARITCFGDALANQYSYWYQRKPGQAPVLVIYKDSERPSGIPQRFSASNSGTTVTLTITGVQAEDEADYFCQSADSTGIYKVFGGGTKLTVL
B2: the EC50 (in general, the concentration giving half of the maximal effect) in assay [2] came to 0.2 µg/mL.

B3: NORO-202A.1 (antibody, V domains shown)
VH: QVQLVQSGAEVKKPGASVKVSCKASEYTFTGYYLQWVRQAPGHGLEWMGWINPSGGTKYSQKFQGRVTMTRDTSITTVYMELSRLRSDDTAVYYCARDLLRNWGDHDAFDVWGQGTMVTVSS
VL: QSVLTQPPSASETPGQGVTISCSGSSSNIGSNFVCWYQQVPGTAPKLLIYKNNQRPSGVPDRFSGSKSGTSASLAISGLRSEDEADYYCSAWDDSLSGPVFGGGTKLTVL
Take B3: the binding result is “no binding (tested: 500 nM)” with GI.1 (M87661) VLPs and “binds” in assay [3]. Further, in assay [4], the EC50 was determined as 0.4 µg/mL.

B4: NORO-232A.2 (antibody, V domains shown)
VH: QVQLKQWGAGLLKSSETLSLTCAFNGNSFGAFYWSWIRLSPGKGLEWIGEVNYLGGADYNPSLKSRVTMSADTSKRQFSLSLKSVTAADTGVYFCARGRPHDYSPGSYSRPRRYYGLDVWGQGTTVTVSS
VL: EIVLTQSPATLSLSPGDSATLSCRASQAVSTTYLAWYQQTRGQAPRLLIHGTYTRAIGIPDKFSGTGSGTDFTLTISGLAPEDFAVYYCQQYSSSPYTFGQGTKIEIT
B4 yielded a concentration for a half-maximal effect (EC50) in assay [2] of 0.3 µg/mL.

B5: NORO-156.3 (antibody, V domains shown)
VH: QVQLQQWGAGLLKPSETLSLTCAVYGGSFSGYYWSWIRQPPGKGLEWIGEINHSGSTNYNPSLKSRVTISVDTSKNQFSLKLSSVTAADTAVYYCARGLMDVWGQGTLVTVSS
VL: AIRMTQSPSSFSASTGDRVTITCRASQGISSYLAWYQQKPGKAPKLLIYAASTLQSGVPSRFSGSGSGTDFTLTISCLQSEDFATYYCQQYYSYPRTFGQGTKLEIK
As for B5, the binding result with GI.1 (M87661) VLPs was “binds”; in assay [5], “no binding (tested: 500 nM)”.
